From patent publication US20260014245A1 (MAX DELBRUECK CENTRUM F R MOLEKULARE MEDIZIN IN DER …, published 2026)

What was measured:
[1] = target: T1, MERS-CoV RBD (wild type, amino acids G372-L588, AviTag, Twin Strep tag, 6xHis) (MERS-CoV); experiment: serum pull-down with RBD coated beads
[2] = target: T1, MERS-CoV RBD (wild type, amino acids …); experiment: human DPP4
[3] = target: T1, MERS-CoV RBD (wild type, amino acids …); experiment: ELISA on coated RBD, antibody titrated, anti human IgG OD 405 nm
[4] = target: T1, MERS-CoV RBD (wild type, amino acids …); experiment: ELISA, anti Twin-Strep readout OD 405 nm (the Twin-Strep-tagged RBD is detected)

B1: circulating mouse DPP4 (from serum) (receptor)
chain: SRRTYSLADYLKSTFRVKSYSLWWVSDFEYLYKQENNILLLNAEHGNSSIFLENSTFESFGYHSVSPDRLFVLLEYNYVKQWRHSYTASYNIYDVNKRQLITEEKIPNNTQWITWSPEGHKLAYVWKNDIYVKVEPHLPSHRITSTGEENVIYNGITDWVYEEEVFGAYSALWWSPNNTFLAYAQFNDTGVPLIEYSFYSDESLQYPKTVWIPYPKAGAVNPTVKFFIVNIDSLSSSSSAAPIQIPAPASVARGDHYLCDVVWATEERISLQWLRRIQNYSVMAICDYDKINLTWNCPSEQQHVEMSTTGWVGRFRPAEPHFTSDGSSFYKIISDKDGYKHICHFPKDKKDCTFITKGAWEVISIEALTSDYLYYISNQYKEMPGGRNLYKIQLTDHTNVKCLSCDLNPERCQYYAVSFSKEAKYYQLGCWGPGLPLYTLHRSTDHKELRVLEDNSALDRMLQDVQMPSKKLDFIVLNETRFWYQMILPPHFDKSKKYPLLLDVYAGPCSQKADASFRLNWATYLASTENIIVASFDGRGSGYQGDKIMHAINRRLGTLEVEDQIEAARQFVKMGFVDSKRVAIWGWSYGGYVTSMVLGSGSGVFKCGIAVAPVSRWEYYDSVYTERYMGLPIPEDNLDHYRNSTVMSRAEHFKQVEYLLIHGTADDNVHFQQSAQISKALVDAGVDFQAMWYTDEDHGIASSTAHQHIYSHMSHFLQQCFSLH
Question: Does B1 bind [1]?
Answer: no binding

B2: recombinant human DPP4 with an N-terminal 8xHis-tag (hDPP4-N'His) (receptor)
chain: HHHHHHHHGGGSGGGSGGGSDSRKTYTLTDYLKNTYRLKLYSLRWISDHEYLYKQENNILVFNAEYGNSSVFLENSTFDEFGHSINDYSISPDGQFILLEYNYVKQWRHSYTASYDIYDLNKRQLITEERIPNNTQWVTWSPVGHKLAYVWNNDIYVKIEPNLPSYRITWTGKEDIIYNGITDWVYEEEVFSAYSALWWSPNGTFLAYAQFNDTEVPLIEYSFYSDESLQYPKTVRVPYPKAGAVNPTVKFFVVNTDSLSSVTNATSIQITAPASMLIGDHYLCDVTWATQERISLQWLRRIQNYSVMDICDYDESSGRWNCLVARQHIEMSTTGWVGRFRPSEPHFTLDGNSFYKIISNEEGYRHICYFQIDKKDCTFITKGTWEVIGIEALTSDYLYYISNEYKGMPGGRNLYKIQLSDYTKVTCLSCELNPERCQYYSVSFSKEAKYYQLRCSGPGLPLYTLHSSVNDKGLRVLEDNSALDKMLQNVQMPSKKLDFIILNETKFWYQMILPPHFDKSKKYPLLLDVYAGPCSQKADTVFRLNWATYLASTENIIVASFDGRGSGYQGDKIMHAINRRLGTFEVEDQIEAARQFSKMGFVDNKRIAIWGWSYGGYVTSMVLGSGSGVFKCGIAVAPVSRWEYYDSVYTERYMGLPTPEDNLDHYRNSTVMSRAENFKQVEYLLIHGTADDNVHFQQSAQISKALVDVGVDFQAMWYTDEDHGIASSTAHQHIYTHMSHFIKQCFSLP
notes: range 38-766
Question: B2 was tested. Which Kd [2] did it give?
Answer: 7.8 nM

B3: LCA60 (antibody, V domains shown)
VH: EVQLLESGGGLVKPGGSLRLSCEASGLTFSNVWMSWVRQAPGKGLEWVGRIKRKSEGATTDYGAPVKGRFTLSRDDSKNTVYLQMNSLKIDDTAVYYCSTLTRGGDVWSSSYYFDYWGQGALVTVSS
VL: QSALTQPASVSGSPGQSITISCTGTSSDVGTYDLVSWYQQHPGKSPKLMIYADIKRPSGVSHRFSGSKSGNTASLTISGLQSADEADYYCCLYAGSSTSVIFGGGTKVT
Question: With B3 as the binder, how does the “EC50 (read off the curve)” value [3] read?
Answer: ~0.03 µg/mL

B4: D12 (antibody, V domains shown)
VH: EVKLVESGGGLVKPGGSLKLSCAASGFTFSSYAMSWVRQTPEKRLEWVATISSGGTYTYYPDSVKGRFTISRDNAENTLYLQMSSLRSEDTAMYYCVRDGNSMDYWGQGTSVTVSS
VL: DIQMTQTTSSLSASLGDRVTIICRASQDINNYLNWYQKPDGTVKLLIYYTSRLHSGVPSRFSGSGSGSDYSLTISNLEQEDIATYFCQQANTLPPTFGAGTKLELR
Question: How did the “EC50 (read off the curve)” value [3] turn out when B4 was run?
Answer: ~0.04 µg/mL

B5: recombinant mouse DPP4 (mDPP4) (receptor)
chain: SKDEAAADSRRTYSLADYLKSTFRVKSYSLWWVSDFEYLYKQENNILLLNAEHGNSSIFLENSTFESFGYHSVSPDRLFVLLEYNYVKQWRHSYTASYNIYDVNKRQLITEEKIPNNTQWITWSPEGHKLAYVWKNDIYVKVEPHLPSHRITSTGEENVIYNGITDWVYEEEVFGAYSALWWSPNNTFLAYAQFNDTGVPLIEYSFYSDESLQYPKTVWIPYPKAGAVNPTVKFFIVNIDSLSSSSSAAPIQIPAPASVARGDHYLCDVVWATEERISLQWLRRIQNYSVMAICDYDKINLTWNCPSEQQHVEMSTTGWVGRFRPAEPHFTSDGSSFYKIISDKDGYKHICHFPKDKKDCTFITKGAWEVISIEALTSDYLYYISNQYKEMPGGRNLYKIQLTDHTNVKCLSCDLNPERCQYYAVSFSKEAKYYQLGCWGPGLPLYTLHRSTDHKELRVLEDNSALDRMLQDVQMPSKKLDFIVLNETRFWYQMILPPHFDKSKKYPLLLDVYAGPCSQKADASFRLNWATYLASTENIIVASFDGRGSGYQGDKIMHAINRRLGTLEVEDQIEAARQFVKMGFVDSKRVAIWGWSYGGYVTSMVLGSGSGVFKCGIAVAPVSRWEYYDSVYTERYMGLPIPEDNLDHYRNSTVMSRAEHFKQVEYLLIHGTADDNVHFQQSAQISKALVDAGVDFQAMWYTDEDHGIASSTAHQHIYSHMSHFLQQCFSLH
Question: Does B5 bind [4]?
Answer: no binding (tested: about 30 ng/µL)
